The target in this assay is chaperone receptors within native chloroplast membranes (dynamic TIRE). Nature of the assay: total internal reflection ellipsometry (TIRE); dynamic: pea chloroplast membranes on Cr/Au slides; time course of Δ at 700 nm over 15 min at chaperone concentrations from 1 to 10 µg/ml in 100 mM Tris-HCl pH 8.0; 1/τ against concentration fitted to a line, KA = ka/kd.

Sequence of Hsp90-2 (At5g56030), full length (P55737 whole entry): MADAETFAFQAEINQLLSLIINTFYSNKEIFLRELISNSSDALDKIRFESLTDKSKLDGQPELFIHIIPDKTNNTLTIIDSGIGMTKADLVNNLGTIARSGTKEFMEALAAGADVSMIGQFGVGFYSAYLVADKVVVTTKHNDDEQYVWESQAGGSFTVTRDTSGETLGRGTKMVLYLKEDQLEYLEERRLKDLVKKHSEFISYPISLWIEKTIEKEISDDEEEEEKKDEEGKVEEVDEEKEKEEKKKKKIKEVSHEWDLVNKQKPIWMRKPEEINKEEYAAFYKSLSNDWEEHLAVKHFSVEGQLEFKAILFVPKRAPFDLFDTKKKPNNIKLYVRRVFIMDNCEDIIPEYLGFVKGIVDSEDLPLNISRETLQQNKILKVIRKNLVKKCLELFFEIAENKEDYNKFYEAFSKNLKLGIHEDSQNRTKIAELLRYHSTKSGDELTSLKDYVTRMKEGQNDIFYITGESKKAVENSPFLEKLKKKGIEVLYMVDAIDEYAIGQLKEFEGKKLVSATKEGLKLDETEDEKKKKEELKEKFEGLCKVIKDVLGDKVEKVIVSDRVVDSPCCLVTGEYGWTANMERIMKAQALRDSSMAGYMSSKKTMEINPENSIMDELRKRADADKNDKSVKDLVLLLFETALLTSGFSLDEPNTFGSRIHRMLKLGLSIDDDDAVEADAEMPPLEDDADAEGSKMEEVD
Sequence of Hsp70-1 (At5g02500), full length (P22953 whole entry): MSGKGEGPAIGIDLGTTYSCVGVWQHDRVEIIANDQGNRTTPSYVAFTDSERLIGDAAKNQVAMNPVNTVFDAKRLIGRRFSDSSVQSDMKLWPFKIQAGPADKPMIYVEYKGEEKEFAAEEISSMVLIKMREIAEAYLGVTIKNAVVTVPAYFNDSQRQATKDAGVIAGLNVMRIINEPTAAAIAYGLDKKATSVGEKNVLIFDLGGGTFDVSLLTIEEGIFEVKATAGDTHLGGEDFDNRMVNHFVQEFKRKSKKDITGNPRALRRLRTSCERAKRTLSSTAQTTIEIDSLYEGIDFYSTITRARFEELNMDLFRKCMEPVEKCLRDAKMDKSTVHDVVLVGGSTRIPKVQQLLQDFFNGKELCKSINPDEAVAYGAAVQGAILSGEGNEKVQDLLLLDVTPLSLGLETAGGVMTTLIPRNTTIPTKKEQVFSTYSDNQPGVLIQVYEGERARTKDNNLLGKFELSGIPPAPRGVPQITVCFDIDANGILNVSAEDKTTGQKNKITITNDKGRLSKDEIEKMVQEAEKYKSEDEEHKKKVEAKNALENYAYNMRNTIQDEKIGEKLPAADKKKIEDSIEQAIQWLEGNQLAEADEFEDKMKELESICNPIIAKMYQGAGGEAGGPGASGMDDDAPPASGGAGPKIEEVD

Substance “Hsp70-1 (At5g02500), full length (from UniProt P22953 1-651) (natural protein)” returned a Ka of 9.15e+06 M⁻¹. Next, “Hsp90-2 (At5g56030), full length (from UniProt P55737 1-699) (natural protein)”: 8.74e+06 M⁻¹.

The values are drawn from paper PMC3315527.
